Biological target: T1, His-SMARCAD1 (human, recombinant) (human, UniProt Q9H4L7 1-1026)
T1 construct: also called hSMARCAD1; His-tagged human SMARCAD1; source: insect cells (baculovirus), purified via a His-tag
T1 sequence (looked up): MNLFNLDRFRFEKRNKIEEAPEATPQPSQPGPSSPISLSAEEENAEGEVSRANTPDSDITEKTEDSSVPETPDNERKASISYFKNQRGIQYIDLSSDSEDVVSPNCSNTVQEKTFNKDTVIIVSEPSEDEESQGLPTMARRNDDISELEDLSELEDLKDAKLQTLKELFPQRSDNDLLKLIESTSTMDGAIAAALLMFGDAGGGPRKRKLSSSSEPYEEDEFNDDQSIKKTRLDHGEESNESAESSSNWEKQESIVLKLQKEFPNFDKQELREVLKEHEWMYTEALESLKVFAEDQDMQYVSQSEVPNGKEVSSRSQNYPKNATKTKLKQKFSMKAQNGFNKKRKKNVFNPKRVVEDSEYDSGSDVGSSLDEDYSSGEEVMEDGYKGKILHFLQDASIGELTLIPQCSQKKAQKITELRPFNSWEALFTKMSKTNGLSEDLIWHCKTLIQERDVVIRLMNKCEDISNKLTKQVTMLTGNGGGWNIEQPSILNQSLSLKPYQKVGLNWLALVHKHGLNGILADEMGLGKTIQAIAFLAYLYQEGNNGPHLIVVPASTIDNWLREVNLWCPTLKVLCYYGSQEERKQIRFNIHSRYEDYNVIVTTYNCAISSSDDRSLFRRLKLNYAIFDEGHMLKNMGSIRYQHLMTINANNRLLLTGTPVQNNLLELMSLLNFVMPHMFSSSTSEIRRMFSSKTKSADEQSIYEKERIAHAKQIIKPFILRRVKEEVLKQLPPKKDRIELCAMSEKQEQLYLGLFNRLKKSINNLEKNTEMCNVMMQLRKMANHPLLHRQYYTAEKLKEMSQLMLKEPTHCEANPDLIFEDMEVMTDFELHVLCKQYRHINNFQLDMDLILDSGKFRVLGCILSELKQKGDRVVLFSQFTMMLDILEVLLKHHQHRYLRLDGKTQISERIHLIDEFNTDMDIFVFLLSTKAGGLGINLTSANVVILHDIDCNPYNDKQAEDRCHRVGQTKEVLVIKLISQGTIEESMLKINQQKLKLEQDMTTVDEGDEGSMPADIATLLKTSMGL
Assay: pull-down; GST fusion proteins on glutathione Sepharose 4B beads (13 ug protein), 1 ug His-Smarcad1 in solution; 100 mM NaCl, 20 mM Hepes, 5% glycerol, 0.1% Triton; 1.5 h at 4 °C; bound protein detected by Western blot with anti-SMARCAD1
Conditions: both partners purified

binding result: binds
B1: GST-TFIIIC102 (human, full-length) (natural protein, UniProt Q9Y5Q9 1-886, looked up)
chain: MSGFSPELIDYLEGKISFEEFERRREERKTREKKSLQEKGKLSAEENPDDSEVPSSSGINSTKSQDKDVNEGETSDGVRKSVHKVFASMLGENEDDEEEEEEEEEEEEEEETPEQPTAGDVFVLEMVLNRETKKMMKEKRPRSKLPRALRGLMGEANIRFARGEREEAILMCMEIIRQAPLAYEPFSTLAMIYEDQGDMEKSLQFELIAAHLNPSDTEEWVRLAEMSLEQDNIKQAIFCYTKALKYEPTNVRYLWERSSLYEQMGDHKMAMDGYRRILNLLSPSDGERFMQLARDMAKSYYEANDVTSAINIIDEAFSKHQGLVSMEDVNIAAELYISNKQYDKALEIITDFSGIVLEKKTSEEGTSEENKAPENVTCTIPDGVPIDITVKLMVCLVHLNILEPLNPLLTTLVEQNPEDMGDLYLDVAEAFLDVGEYNSALPLLSALVCSERYNLAVVWLRHAECLKALGYMERAAESYGKVVDLAPLHLDARISLSTLQQQLGQPEKALEALEPMYDPDTLAQDANAAQQELKLLLHRSTLLFSQGKMYGYVDTLLTMLAMLLKVAMNRAQVCLISSSKSGERHLYLIKVSRDKISDSNDQESANCDAKAIFAVLTSVLTKDDWWNLLLKAIYSLCDLSRFQEAELLVDSSLEYYSFYDDRQKRKELEYFGLSAAILDKNFRKAYNYIRIMVMENVNKPQLWNIFNQVTMHSQDVRHHRFCLRLMLKNPENHALCVLNGHNAFVSGSFKHALGQYVQAFRTHPDEPLYSFCIGLTFIHMASQKYVLRRHALIVQGFSFLNRYLSLRGPCQESFYNLGRGLHQLGLIHLAIHYYQKALELPPLVVEGIELDQLDLRRDIAYNLSLIYQSSGNTGMAQTLLYTYCSI
notes: TFIIIC102, human, full-length, cDNA from OriGene (RC208122) cloned into pGEX-6P-1 (BamH1/Not1); pGEX-6P-1 places GST at the N-terminus (surmised from the vector; the reverse primer carries the stop codon); also called hTFIIIC102; human TFIIIC102 GST-fusion protein; source: E. coli, purified (glutathione Sepharose 4B beads)
